Experiment [1] addresses Arkadia 119 aa polypeptide (human) (UniProt Q6ZNA4). Put plainly: ITC; Microcal PEAQ ITC, 25 °C; 75-200 uM Arkadia polypeptide in the cell, 0.75-2 mM UBCH5B from the syringe in 2 uL injections; single site-binding model.
In experiment [2] the target is Arkadia RING 68 aa (human) (UniProt Q6ZNA4). The description is as above.

A word on the stoichiometry N: it is the number of molecules, sites or subunits per partner or assembly.

Sequence of UBCH5B (P62837 whole entry): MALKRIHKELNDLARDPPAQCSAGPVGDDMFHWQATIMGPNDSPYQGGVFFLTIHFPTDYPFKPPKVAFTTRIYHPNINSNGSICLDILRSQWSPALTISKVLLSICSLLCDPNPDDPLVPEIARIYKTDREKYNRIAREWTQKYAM
Sequence of Arkadia 119 aa polypeptide (human) (Q6ZNA4 876-994): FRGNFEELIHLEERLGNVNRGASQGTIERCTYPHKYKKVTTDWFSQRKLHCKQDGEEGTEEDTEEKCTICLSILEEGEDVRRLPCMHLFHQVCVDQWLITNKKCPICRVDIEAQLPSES
Sequence of Arkadia RING 68 aa (human) (Q6ZNA4 927-994): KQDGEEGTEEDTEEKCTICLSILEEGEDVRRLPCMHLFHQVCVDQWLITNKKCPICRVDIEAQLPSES

In experiment [1], “UBCH5B (from UniProt P62837 1-147) (enzyme)” displayed a dH of -4.7 kcal/mol and a stoichiometry N of 0.6. In experiment [2], this substance gave a dH of 3.1 kcal/mol and a stoichiometry N of 1.

Values taken from publication PMC9501438.
